The sequences below were run on Saccharomyces cerevisiae (assay: transcriptional activation domain activity (GFP:mCherry ratio, weighted mean of sorted bins, harmonized to initial dataset scale) (arbitrary fluorescence ratio units); higher = stronger transcriptional activation). Conditions: beta-estradiol 1 µM; induction time 4 h.
Procedure, shortened: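 The activation activity of each tile is the read-weighted mean of bin median fluorescence, averaged across its barcodes and mapped linearly onto the scale of the initial dataset. Tiles were fused to an estradiol-inducible synthetic transcription factor, barcoded, and integrated at URA3 in yeast diploids carrying a GFP reporter. Induction used 1 uM beta-estradiol in SC for 4 hours at 30 °C, after which cells were sorted into 8 GFP:mCherry bins, and any tile with fewer than 50 reads was dropped.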

First: MLFVFAQLHQVPLSEYFLLGCLYWFFYHIIFSSIFRPSHSIGMASGLPMLYTP
Second: FVYSLCIRYLLAPTPTFQEHGVSPRRSTGIALITLFFIILVIFLLTWMRLIHI
The “transcriptional activation domain activity” value of the first is lower: 45000 for the first, 45100 for the second.

Compared with “KAAKRGRNARRKRKDKPKGQDHEDEKSKINDDELEYASPSNATVTNGPQTSPD”, “MPAVKKDAPSQRQQDKESKRARGALSCAECRRLKLKCDKTVPCSSCKRRGCSA” is higher in “transcriptional activation domain activity” value: 14300 for the first, 34600 for the second.

Going from “GPYDDIFMGGIYGIKHLYELEDGLTILWHDGIHFSPNRVFRLLIAFLLRVVGT” to “SSRSRSVSRQPPSPHEEEQEDAEEREAEDGKGGGGEGEREHQSRESSPAPART”, the “transcriptional activation domain activity” value falls from 61900 to 27100.

First: KQTRAGQRTRFRAVVIVGDSNGHVGLGVKTSKEVATAIRAAIVIAKLNVIPVR
Second: PLIQVPGYHSCGHGGLGGLCQASPTLLVISQSLFLRWWHTVHLLIEIYIWLWS
The “transcriptional activation domain activity” value of the first is lower: 64200 for the first, 72200 for the second.

Going from “VENPVTDDNGNLKLELPDNLDNADFSKLLEFDAKNDEALFNSNELLSHTMDPV” to “EEDDVKSEKSSRSKRRESTKEEVASPVRSERGSDKSSRSKKRDIVAEAAAIVS”, the “transcriptional activation domain activity” value falls from 94700 to 35500.

First: GGAAGARKGAKRPKRAVGGAAAAAGGKKSADSDDEKPKEKSAPSGGGSKVGGI
Second: ASSSDEEEQEVDDMETDSSKKRSHDETKEEEVEEEEERPKKTVKVEKPKEKKT
The “transcriptional activation domain activity” value of the first is higher: 36600 for the first, 29200 for the second.

First: EILHLMVDRDLFLLLAIDGIMCLATSFGFLLQKAIVHDCLTWNGSGWIIQSLW
Second: LTPSSEQVIPACSTRTSTARASAGPSTKGAASRPSSSVSTRSRAPTPSSKKSC
The “transcriptional activation domain activity” value of the first is higher: 68500 for the first, 29300 for the second.

Compared with “MKRVYKLNTCLFFYNSYNPFHIYFYSFIHSNMPAMYHLFSILLLWLNCLSLVQ”, “VPMAYHHYIALLIFGAYLSNVNALCVLSLLPLLLHSLFWSLGATNFLLLSVYN” is higher in “transcriptional activation domain activity” value: 44500 for the first, 56600 for the second.

Going from “MEWLLHTVYVVAIKDTRAWGGFSPFQMSMVGYFNLKLIWLKLLIIWRFFRLWA” to “SSDEEEEPRPKGKGKGKAAVVKAKPKPVAEKGNNAGGKRKRDADSEADGGAAK”, the “transcriptional activation domain activity” value falls from 76000 to 44000.

Compared with “ASIPEPTANLFLDSINTFGSIDIFDSDLDLNNTLQWADLFDLNFDNIMMTPQF”, “MQASFIFLSFTSGVIHTYILYLDLVAYFLLSLGGFVLIIGFWRWGFFFSFFPF” is lower in “transcriptional activation domain activity” value: 123000 for the first, 55400 for the second.

First: GRADARRGRRRRGGGGEGRRGTGDGGRGKTRGGEAGKERRTENRGARGGATRG
Second: GEGAGGRDSTKTGAKAAGTGSTASKQPSNSASGGGQGKKKQPSATSAAGRKIA
The “transcriptional activation domain activity” value of the first is lower: 39600 for the first, 59000 for the second.

Compared with “LFTSLLTSPFLFSLPLLSISASSFLIPPSPFHSLFLPLSLPFPLLYPFPSLFF”, “LLAWGYVLFNPFAIYSLPYTVLFAFLSLSYLVLTFVLTLPSSLPFYHSKYWFQ” is higher in “transcriptional activation domain activity” value: 49800 for the first, 66900 for the second.

Going from “MVPFSAFSFSLVKKFHWSAAFGGSFFLHLFFTNLNAWVFLFYLLLYVFVYQGL” to “AGGAFETGGKRRKGKEKVRLDYNAIAGGQVALVKDDLELLIVHLLISRYLGEA”, the “transcriptional activation domain activity” value falls from 40600 to 19000.

First: VVAAETAPATEEKPAEETKPAEEAAKAEEKKEEEEIKPVEEGHLNHKAQGLSF
Second: RLFALLHLHILAYISFFISSSLAYHLHLFLLLLSYFSLLFCIFVSPRLGLSSC
The “transcriptional activation domain activity” value of the first is lower: 49400 for the first, 66400 for the second.

Going from “DEEGRRALPRRCVLVMGSEREGVPGPVLAECDGCVEVRQVGVTRSLNVQTAAA” to “SASSKNGDKPKTVRKKGGEPEVSKESTPKPRTTARNRKGAKQEEAKNKTITGR”, the “transcriptional activation domain activity” value rises from 28700 to 41300.

Compared with “LILLRLLWPVTLYFFVSLMYSLLSLAFGVPFSRNFGHAGFLIYWMMSWCSMSA”, “MDGVFGVCFLCFISVFYLCFIAFFFSILTTTLLLWLRWGAMFLSFFLSCYLFF” is lower in “transcriptional activation domain activity” value: 62400 for the first, 32700 for the second.

First: EPAAEGAAGADKPAEEAKPAEDKPAETKPEETAEGAKTEETPAPAESAAAPAA
Second: ELYIYSTVRYSFSDYLIPSGYNVCAFLLSCLMFNGDLMVELVLVMRSWFKRIL
The “transcriptional activation domain activity” value of the first is lower: 37800 for the first, 66500 for the second.

Compared with “SSFVLCLLQCLDVPSLVELTVRRVNSRLRLLLSCKVLLAGLVRLAIHGDIEMA”, “KGRSRENSRQRGNEDRVARGRDESRSRKTGGREASEDRGRSISRQWTPKPAKR” is lower in “transcriptional activation domain activity” value: 52200 for the first, 22600 for the second.

Compared with “SWFIHFYILSLSCTVFWAVQFVIDGTVLEVIIKNQLARCTSSMTLSQVLLAWF”, “CFCCNYFKVPLFCCSLSLYQTIRFFLIFLLLLLQRPSFSVFLVNSILLRFFPL” is lower in “transcriptional activation domain activity” value: 50300 for the first, 37600 for the second.

Compared with “MVFFLYISLLIFFFTATIAALPCMVWWILAVHCWLFIFLDPLAFFYYSFFPFF”, “AAAKAAPAIEEEPQEEQPEEPDKAAAPKKRGRKRKSSGVGAATAAAAAVPRGP” is lower in “transcriptional activation domain activity” value: 26300 for the first, 9830 for the second.

Going from “AAATATGAAPPGAPGEGPPKVKRGRKPKPKNLPPSDPNASTTATPGTSAPGSQ” to “MWEVLWAFSFLAGDIFVFFLSLALYIYPNHLVSPLLPGCVKPPVGMYWFLVFQ”, the “transcriptional activation domain activity” value rises from 32500 to 44000.

Compared with “VVNLLQSLHFGGLLNHKKRHYFWIIFGAIFFWEWIPQFPFPLLTAFSVICLVD”, “PAEGEAAAAPAAEESAAPAARTGSSSSSSSNEEKKKKAAKSKSRSVSRGKRTS” is lower in “transcriptional activation domain activity” value: 47400 for the first, 23200 for the second.

Compared with “RLFAELFMFSICLFSRVLSYFSVFQLQLINVLMYFLPLMIICGYWAGLLNVAI”, “PINAAISNLMLGMLLFCGSLYTLVTFLPIFHSNCPYYTPLSSPWWRILRALGV” is lower in “transcriptional activation domain activity” value: 52500 for the first, 46000 for the second.

First: MYVLARVRMFSSGSRLLRLDRVRGYMLWLILLVVYVYLALTCISFRPPFFYHS
Second: RFFIRVLSNLKIDRHNSMYCTLGRPITILNLILRGWYVVRKFIILLFSIVLLF
The “transcriptional activation domain activity” value of the first is higher: 71600 for the first, 54100 for the second.

Going from “SHQEHVIAQLMNKVKSVSTTKPYVEYFQMPSKSVFITIVALCLYVILLKKTPS” to “EWNRSVNSTYPLLYRGVDFLQKSLSWLKILRLSYLHPLQFFGCFGFGLLVVHI”, the “transcriptional activation domain activity” value rises from 15500 to 60200.

First: DGDEEDAKDGRKKKKKKRLPKSPIGNPGEKLGFVILGAQHAREWVATSAALYL
Second: AAAKPVATKSSSKAKTPAAASISKSKAKPVAAAARGGGKKRKVASSPAPSVVA
The “transcriptional activation domain activity” value of the first is higher: 35700 for the first, 9030 for the second.

First: PFVTRCQRNIRIACLICFFFTYSLFHLAFYVGLERRNVPVPLGNHFWSVYGFA
Second: MKILRLYLTKLPFLARPILTQLLQESLFRYGIVRELGIYLRQNYFDNTGRFTL
The “transcriptional activation domain activity” value of the first is lower: 38200 for the first, 83400 for the second.

Compared with “GEAGAEGEAAAAEGEGAAEEGASGEGAEGEEAAAEEGEGAEEEGGEDLQALAT”, “LTEVTSPRFIASIIACLCNHFAWFFYFIDPHHYHALFTPVEICLFFLVVVWFV” is higher in “transcriptional activation domain activity” value: under 6570 for the first, 52100 for the second.

Going from “TLKALCRFITWLSIEHIMGANLIYKLKAWLKMYRNLVIQCYIEIANLDIPTSV” to “SIYLCTHGTFFVVVTPIYFDYPCCGNPLVLFSSTLGMIIHFILFFFCLPCFFL”, the “transcriptional activation domain activity” value rises from 56900 to 63100.

Going from “RRARSVVEVAQTDDTGEEEDNNINSSNNINNKKKKIILELENGAETLEGDLLL” to “VERCHRNIVPNGCAVFQAGGLVVVLVEVSRKSYLASLVPVIVNAILNEHQIVV”, the “transcriptional activation domain activity” value rises from 16500 to 65300.

First: ITHCPSTRVAYTYIVGLSTNAVMIGFVLCPHCFLAFQNPSQTLWFLSLFLLCL
Second: LHQRVHEQGLYDCHYSNYFIDLLRYLVLLGLFVVSFYKEYYLVSSCFLGCFWH
The “transcriptional activation domain activity” value of the first is lower: 47700 for the first, 57400 for the second.

First: MGLIYLYFIFFINLLIWFSVVFCELYFFFFCLCLSNCIFEIYFYVLFFNIFLY
Second: MCSIFLVFIVPPNPLSYLISFAFFFLFSFYLWCLLRRGLSYFALYAYLKYALL
The “transcriptional activation domain activity” value of the first is higher: 51000 for the first, 43700 for the second.

First: FSSINANPFDLDEQLAIELSAFADDSFIFPDEDKPSNNNNNSNNGNDDHSNHD
Second: LVSHTVFKIIAICRHYAPPDGYMLAYVLCSSFALASTLWCTLLIICRIVILVQ
The “transcriptional activation domain activity” value of the first is higher: 80300 for the first, 39100 for the second.

Compared with “RRRFRNAKYFVHFIQLVRLLNICLQFEISNAEIEEVRVGFIAWVRRYEELYYQ”, “MLQIRSFVIAAFALPLCLLFCFFTLPFFALCPFLLYFPSFSILLLRLMLHLLV” is higher in “transcriptional activation domain activity” value: 42800 for the first, 49200 for the second.

Going from “PKSRPKKAKEEAVATGALGATGVVPEKRKRGRPRKIQPPIDGVALVAPPVAAP” to “MAAAPAAKACAQCNKAETVSGGSDGEEGSSNLHPCNMCKSVLYCSRDCKKAHG”, the “transcriptional activation domain activity” value falls from 51700 to 8830.

First: EEKAPFDIPLDEFFTELEKHSNVSQFNTLDVSEGNQVINESASTNTSSALNCQ
Second: GVFVLLEQYCGINFYGLRKHGGTASMCPLGGTLRSWAYRFVAISYPPKRMVNG
The “transcriptional activation domain activity” value of the first is higher: 103000 for the first, 27600 for the second.

Compared with “MAKKASGSAEKKGGDKADKKGKAKAKADDSDVEDKGSKGKGALKAATAVNVRH”, “VWEAVTTGFDGGFVPRTRDADAGTRRTGGSVRAEERKEKLRAWRVSRCWAVLA” is higher in “transcriptional activation domain activity” value: 9660 for the first, 56500 for the second.

Reference: the supplement of paper PMC12636428
